In patent US20240360223A1 (DRAGONFLY THERAPEUTICS, published 2024):
Where a chain is given by its changes, count along the chain named. “And” between values parts separate entries of the source, which are not always exact repeats. Equal entries are not always repeated.

How the values were obtained:
human CD32a H131 = biological target: T1, human CD32a H131 (human, UniProt P12318 36-218, limits assumed); experiment: SPR, steady state
T1 sequence (looked up): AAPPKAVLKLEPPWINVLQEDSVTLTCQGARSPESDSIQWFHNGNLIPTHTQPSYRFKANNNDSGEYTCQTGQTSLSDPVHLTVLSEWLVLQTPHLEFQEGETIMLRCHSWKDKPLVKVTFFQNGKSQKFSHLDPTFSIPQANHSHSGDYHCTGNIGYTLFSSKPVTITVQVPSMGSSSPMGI

[1] = biological target: T2, human BAFF-R expressed on cells (human, UniProt Q96RJ3 1-184); experiment: cell-based or functional assay
human FcRn [2] = biological target: T3, human FcRn (human, UniProt P55899 24-297; P61769 21-119); experiment: SPR, pH 6.0, steady state; pH 6.0; fourth replicate
human FcRn [3] = biological target: T3, human FcRn; experiment: SPR, pH 6.0, steady state; pH 6.0; third replicate
[4] = biological target: T2, human BAFF-R expressed on cells; experiment: blocking of BAFF-biotin on hBAFF-R CHO cells
cynomolgus CD16 [5] = biological target: T4, cynomolgus CD16 (cynomolgus, UniProt Q8SPW2 17-208, limits assumed); experiment: SPR, kinetic fit, average
T4 construct: also called Cyno CD16; cynomolgus FcγRIII

[6] = biological target: T5, human NKG2D (recombinant mFc-tagged dimer) (human, UniProt P26718 78-216); experiment: SPR, kinetics fit
T5 construct: also called hNKG2D
T5 sequence (looked up): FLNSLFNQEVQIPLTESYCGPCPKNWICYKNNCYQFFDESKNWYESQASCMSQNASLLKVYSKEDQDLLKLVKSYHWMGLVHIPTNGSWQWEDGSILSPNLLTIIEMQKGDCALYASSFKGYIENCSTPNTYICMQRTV
Text: (§1) NKG2D is a native dimer, therefore recombinant mFc-tagged NKG2D dimer was used for this experiment. Two different fits were utilized to obtain the equilibrium affinity data: steady state affinity fit and kinetic fit.

[7] = biological target: T2, human BAFF-R expressed on cells; experiment: flow cytometry, RL cells
[8] = biological target: T6, cynomolgus NKG2D (recombinant mFc-tagged dimer) (cynomolgus, UniProt P61252 78-216); experiment: SPR, 1:1 kinetic fit, average
T6 construct: also called cyno NKG2D
T6 sequence (looked up): T5 sequence (looked up) with D38N, T128I
Text: as §1

[9] = biological target: T2, human BAFF-R expressed on cells; experiment: flow cytometry, SUDHL-6 cells
cynomolgus FcRn [10] = biological target: T7, cynomolgus FcRn (cynomolgus, UniProt Q8SPV9 24-297; Q8SPW0 21-119); experiment: SPR, pH 6.0, summary table
T7 construct: also called Cyno FcRn

[11] = biological target: T6, cynomolgus NKG2D (recombinant …); experiment: SPR, kinetics fit
Text: Two different fits were utilized to obtain the equilibrium affinity data: steady state affinity fit and kinetic fit.

[12] = biological target: T8, BCMA expressed on C6 cells (UniProt Q02223 1-184, limits assumed); experiment: flow cytometry on BCMA-C6 cells, anti-human Fc-g-PE
T8 construct: whole, on cells; also called BCMA-C6; isogenic BCMA+ cells
T8 sequence (looked up): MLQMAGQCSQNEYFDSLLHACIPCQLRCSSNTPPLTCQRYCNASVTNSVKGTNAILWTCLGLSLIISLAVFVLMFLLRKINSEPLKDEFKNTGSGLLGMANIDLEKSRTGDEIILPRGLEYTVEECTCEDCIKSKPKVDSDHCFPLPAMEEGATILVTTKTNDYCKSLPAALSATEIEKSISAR
Text: A mAb with known BCMA specificity (EM901) was used as a positive control for BCMA detection.

cynomolgus FcRn [13] = biological target: T7, cynomolgus FcRn; experiment: SPR, pH 6.0, steady state, average; pH 6.0; average of four replicates
[14] = biological target: T9, cynomolgus monkey BAFF-R expressed on cells (cynomolgus monkey); experiment: flow cytometry, CHO-cBAFF-R cells
T9 construct: whole, on cells; also called cBAFF-R; cynoBAFF-R

[15] = biological target: T9, cynomolgus monkey BAFF-R expressed on …; experiment: flow cytometry, cynomolgus BAFF-R CHO cells
Text: Isogenic cell lines overexpressing human and cynomolgus BAFF-R on the backbone of CHO cell line were designed.

cynomolgus CD16 [16] = biological target: T4, cynomolgus CD16; experiment: SPR, kinetic fit; first replicate, kinetic fit
human FcRn [17] = biological target: T3, human FcRn; experiment: SPR, pH 6.0, steady state; pH 6.0; second replicate
[18] = biological target: T6, cynomolgus NKG2D (recombinant …); experiment: SPR, steady state fit, average
Text: as §1

[19] = biological target: T5, human NKG2D (recombinant mFc-tagged …); experiment: SPR, steady state fit, average
Text: as §1

recombinant human TACI = biological target: T10, recombinant human TACI (human, UniProt O14836 2-166, limits assumed); experiment: SPR, immobilized AB1424 F3', analyte 500 nM TACI
T10 sequence (looked up): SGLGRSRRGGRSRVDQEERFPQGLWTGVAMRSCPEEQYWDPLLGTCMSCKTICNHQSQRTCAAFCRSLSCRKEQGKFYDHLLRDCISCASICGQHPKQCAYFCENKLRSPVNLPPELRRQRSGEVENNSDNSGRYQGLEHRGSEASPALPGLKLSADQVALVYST

T7 sequence (Q8SPV9 24-297 limits assumed, chain 1 of 2): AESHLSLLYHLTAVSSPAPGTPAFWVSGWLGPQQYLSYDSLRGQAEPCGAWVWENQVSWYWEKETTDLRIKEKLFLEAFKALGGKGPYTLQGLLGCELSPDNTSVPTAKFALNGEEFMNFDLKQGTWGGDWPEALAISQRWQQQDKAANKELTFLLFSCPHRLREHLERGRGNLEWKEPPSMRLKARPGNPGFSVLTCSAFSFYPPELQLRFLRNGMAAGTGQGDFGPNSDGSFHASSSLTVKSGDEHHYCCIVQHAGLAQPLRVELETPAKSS
T7 sequence (Q8SPW0 21-119 limits assumed, chain 2 of 2): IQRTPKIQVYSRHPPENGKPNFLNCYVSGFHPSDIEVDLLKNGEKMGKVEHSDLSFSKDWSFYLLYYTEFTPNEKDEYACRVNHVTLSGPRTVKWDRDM
T4 sequence (Q8SPW2 17-208 limits assumed): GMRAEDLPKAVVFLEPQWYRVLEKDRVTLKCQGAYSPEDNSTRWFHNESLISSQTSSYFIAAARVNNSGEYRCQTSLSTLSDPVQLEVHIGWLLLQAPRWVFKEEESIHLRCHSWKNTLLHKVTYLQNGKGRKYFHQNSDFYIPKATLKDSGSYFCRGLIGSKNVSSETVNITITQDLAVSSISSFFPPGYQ

Kd (human CD32a H131): 900 nM and 1100 nM and 1000 nM
lysis of BJAB target cells by rested primary human NK cells, EC50 [1]: 0.06 nM
specific lysis of BAFF-R+ target cells by KHYG-1-CD16V effector cells, EC50 [1]: 0.05 nM
Kd (human FcRn [2]): 1100 nM
Kd (human FcRn [3]): 1100 nM
IC50 [4]: 6.76 nM
Kd (cynomolgus CD16 [5]): 271 nM
Kd [6]: 439 nM and 453 nM and 466 nM and 465 nM
EC50 [7]: 0.27 nM
Max FOB [7]: 8 fold over background
Kd [8]: 517 nM
EC50 [9]: 0.41 nM
Max FOB [9]: 19 fold over background
Kd (cynomolgus FcRn [10]): 1000 nM
Kd [11]: 609 nM and 617 nM and 572 nM and 587 nM
binding result [12]: no binding (tested: about 50 nM)
Kd (cynomolgus FcRn [13]): 1000 nM
EC50 [14]: 0.96 nM
Max FOB [14]: 67 fold over background
EC50 [15]: 0.9 nM
Max FOB [15]: 141 fold over background
Kd (cynomolgus CD16 [16]): 261 nM
Kd (human FcRn [17]): 1000 nM
Kd [18]: 520 nM
Kd [19]: 456 nM
binding result (recombinant human TACI): no binding (tested: 500 nM)
B1: AB1424/AB1612 F3′ TriNKET (bispecific antibody, human IgG1, kappa)
chain: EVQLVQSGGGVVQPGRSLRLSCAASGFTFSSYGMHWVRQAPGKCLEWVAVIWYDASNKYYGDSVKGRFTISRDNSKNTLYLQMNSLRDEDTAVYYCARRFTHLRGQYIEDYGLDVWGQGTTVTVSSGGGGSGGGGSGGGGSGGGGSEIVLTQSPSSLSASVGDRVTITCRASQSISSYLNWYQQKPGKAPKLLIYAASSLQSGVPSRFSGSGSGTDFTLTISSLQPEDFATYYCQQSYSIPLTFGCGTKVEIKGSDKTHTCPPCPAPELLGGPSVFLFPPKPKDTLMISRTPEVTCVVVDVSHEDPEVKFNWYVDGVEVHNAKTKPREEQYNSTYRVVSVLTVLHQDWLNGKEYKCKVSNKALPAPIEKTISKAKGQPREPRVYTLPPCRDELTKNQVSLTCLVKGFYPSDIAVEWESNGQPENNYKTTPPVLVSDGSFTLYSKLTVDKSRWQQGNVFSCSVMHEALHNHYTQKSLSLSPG
heavy: EVQLVESGGGLVKPGGSLRLSCAASGFTFSSYSMNWVRQAPGKGLEWVSSISSSSSYIYYADSVKGRFTISRDNAKNSLYLQMNSLRAEDTAVYYCARGAPIGAAAGWFDPWGQGTLVTVSSASTKGPSVFPLAPSSKSTSGGTAALGCLVKDYFPEPVTVSWNSGALTSGVHTFPAVLQSSGLYSLSSVVTVPSSSLGTQTYICNVNHKPSNTKVDKKVEPKSCDKTHTCPPCPAPELLGGPSVFLFPPKPKDTLMISRTPEVTCVVVDVSHEDPEVKFNWYVDGVEVHNAKTKPREEQYNSTYRVVSVLTVLHQDWLNGKEYKCKVSNKALPAPIEKTISKAKGQPREPQVCTLPPSRDELTENQVSLTCLVKGFYPSDIAVEWESNGQPENNYKTTPPVLDSDGSFFLYSWLTVDKSRWQQGNVFSCSVMHEALHNHYTQKSLSLSPG
light: DIQMTQSPSSVSASVGDRVTITCRASQGISSWLAWYQQKPGKAPKLLIYAASSLQSGVPSRFSGSGSGTDFTLTISSLQPEDFATYYCQQGVSFPRTFGGGTKVEIKRTVAAPSVFIFPPSDEQLKSGTASVVCLLNNFYPREAKVQWKVDNALQSGNSQESVTEQDSKDSTYSLSSTLTLSKADYEKHKVYACEVTHQGLSSPVTKSFNRGEC
notes: Chain S: anti-BAFF-R scFv-CH2-CH3; chain H: anti-NKG2D VH-CH1-CH2-CH3; chain L: anti-NKG2D VL-CL; also called AB1612-002
